For 10 molecules, Expression results are on record in patent publication US20230226096A1 (Orna Therapeutics, Inc., priority 2020, published 2023).

The chains are these.
B1: Fipivirus A (nucleic acid)
DNA: TGCGGGTAAACTCCCGCATGTGTGAATGAGGCGATGTCCCAGGAACTAACTGCCGATCCTGGTTTTAACTACGATCCGTATTTGTTACTAATGCGATATCCCCCCATTGTTTGCCTCCATGTTGTTTTCAACGCTTTTGGCCTTGAGTGTTATCAAGTGTTTTAGCGACATAGTGGGAAGCTACGGCTGCGTCCCCATTTTTGAGTGGCGACCCAGTTTTAGTGGCCACTCTGTCCCTGAACTGCGCTATAATGTGAATTTATGTTCACAAAAACGGACTGATGTAACTGTTAATGACTAAGGAATAGTACCTCACTGAAGTATCAAGACCCCGTTCGAGCGGTGTACATATATGGATGGAAACCTTGTCTGAGTCATCTCGAATACTAATCAATGAGGGATGTCGAGTAAGCATATCATGAACCACATAGAATAGTGGGGTTTCGGGGTTAGAGGCTCTCTGCAGCAATGTATCTCTAACACCATGGCCGAAATGAGAGATAGAGACCACGATGTTTGTGTGTAAGTAATGATGTGTGGAAAGAAAATTCTGAATGTTGGTATGATATCAGTCTAAGGGGAGTGGCTCACCTAAGAGCTACCCAAACATTTCACAGCAGACAACATAACGTACTGAGAGTAGTTGGAAGGTTCCAGAAATCAGT
modifications: Fipivirus A
B2: RhPV (nucleic acid)
DNA: GATAAAAGAACCTATAATCCCTTCGCACACCGCGTCACACCGCGCTATATGCTGCTCATTAGGAATTACGGCTCCTTTTTTGTGGATACAATCTCTTGTATACGATATACTTATTGTTAATTTCATTGACCTTTACGCAATCCTGCGTAAATGCTGGTATAGGGTGTACTTCGGATTTCCGAGCCTATATTGGTTTTGAAAGGACCTTTAAGTCCCTACTATACTACATTGTACTAGCGTAGGCCACGTAGGCCCGTAAGATATTATAACTATTTTATTATATTTTATTCACCCCCCACATTAATCCCAGTTAAAGCTTTATAACTATAAGTAAGCCGTGCCGAAACGTTAATCGGTCGCTAGTTGCGTAACAACTGTTAGTTTAATTTTCCAAAATTTATTTTTCACAATTTTTAGTTAAGATTTTAGCTTGCCTTAAGCAGTCTTTATATCTTCTGTATATTATTTTAAAGTTTATAGGAGCAAAGTTCGCTTTACTCGCAATAGCTATTTTATTTATTTTAGGAATATTATCACCTCGTAATTATTTAATTATAACATTAGCTTTATCTATTTATA
modifications: Rhopalosiphum padi virus
B3: Avisivirus A (nucleic acid)
DNA: TTCACTCGCTTTCCCCCCCTCTCTATAGGGGCGGTCTTTTAATTCTTATTAATTTCCTACTTTACTATCAAATTTCTTCTAAGTAGGGACTGAGGTCACTTAGCCCTCCCTCTCCTGGGCTTTCCAGGGTTATAGAGGTTCTAAAGCTAAGCCATGTGTCTTGAGCTACACTTAGTACAAAGGTTTAGTAATGATTGTACATGCCAGTAACCTTCTAGTGCCCATGGATTAAAGAGTGGTAACACTCTCCATGGGGCCCGAAAGGCTAGTGGGCATAGTTGGCATCAAGGAAGGGGTCCCCACCCCAACCTGAATTGCTGGCTAGAAGCTCACCTTAGAAGAAGTGCTGGGTGACAACGTGTCCAATCGTGAACGACTGATGGAAACGTGTGGAGATGGATATGTGGGGGTTCACTGAGTAGATGCCCTGAAGGAGAAATCTGATCAGGGGCCCGTGACTATACGCTAGGTAAACCGGGTATAAAAACCATGAAAGGTGGCCCAAAATCTCTTCCTTTTATTTTATTTCTATGTTGGTGACAGTCAAG
modifications: Avisivirus A
B4: Fipivirus C (nucleic acid)
DNA: CGCGGTTAAACCCGCGCAACCTTCTTTCAGCCGCGTCTGAGTAGCGCGGTTAGTCCTGATACACAGTTTCCTGTTGGGTACTGTGTCTTCGGGTGAATGCTCTTGTGTGAATGTTTTAGGCTGTTTAAGGGAAGCGTTTCCCCGTGCGCTGTGAGGGTTTCTCACGCTCTTTCGGGGTGCAGTCTCTTCTGTTGTTCATTAAGATGTATGGATGCACTGTTGTGAAGGATTTGTGAACTGGGGATCGACACCCCGTGAGGGGTGCCCCAGTGTCCATAGGAGTTTGCTGGAGAGGTGTGTTGCTGTAGTGACTATCCGTGACCTGGCATTCTAAGGTGTTGACCCCAACCTGTGAGGGTCTGGATCGCAGTGTTGAAGTGCTTTGGAGGGTTCAATGGGGTTTCTGTAGTGGATATTATGTGCTTGACGACTACTGGTACGAGTGTATTGGGGGTCTACATGTGTGA
modifications: Fipivirus C
B5: Avisivirus B (nucleic acid)
DNA: CACCCCCTACTGCCCTAACCCCCAAAGTTAGTTATAGGGTGGCTCCCTACCCTTACTCCACGGGGTAAGCCCTAACCCGGTTGAATCTCAAGATCAGCCTTAGCGAGGACTATTAGTACCGCTCAAACCCTTTGCCTGTAGTGCCCAGGGGTCACAGAGGGGTGACCCTCTCCCTGGGGCCCAAAAGGCTAGGTGGCAAGACAGGGTCCAAGTGAGGGGCTACTCTAAGTAGCCCCAAGCTGAACATCCTGTCTGAAGCCACCCTTGCAGGGCCAGGTTTGATTGGGGAAACTAGACACCAGCTTTGTCCTGGGATTGGGGGGATATCGAGTTAGTCCAGGAGGTGCGAGTAGATGCCCCCGAAGGTACCCCAGGCACATCTGGGATCTGATCGGGGGCCCGTGACTATACAATAGGTAAACCGGGTTAAAAAACATGAAAGCGCCTCTCTCTTTCCTACTTCTTTTATTGACTGGTGACAAAAATAGCAGT
modifications: Avisivirus B
B6: Hepatovirus C (nucleic acid)
DNA: TTCAAAAGCCCCAGCGGGGTTTCATTACCCCGCTGTGGCTTTTGGACTTCCCTAGGATGGGGAAGTAAATTACCATCCTCGCGTTTGCCGTGCGTTAACGGCTACTTTTCTTCTAGCTGTAGAAGTAAAATTCAGCATGTTTTATGTTTGTTTGTCTTGTTTGTTATATACATTTTTACACTCCTACAAATGCACATGAAGAACAGTTTGTAGAGATTAACAAACGCTTAGCTGAACCTAGGTGGTGAATCTAGTAGTAAGATAAGTAGAGGAAGCTATACCTTAAGTTGGTTGGGCCCTCGTGTTTGCTCTATAAACAAAACCAAGTGAGTAGAGTGGATGAACAGTACTAAATCCCTGAGTACAGGGAACCTCACAGGTGTGATACACTTATGTCTATGTGACCTGGTTGGAGGTTGGGCGTGCCCTATGATACTGGAGTGGGAGATCTTTTGGGGAACCCACGTTTTCACACTGCCTGATAGGGTCTTGCCGAGAGACTCACTTGTTTCGGCTGTACTTGTAAC
modifications: Hepatovirus C
B7: Fipivirus E (nucleic acid)
DNA: CTCTTCCGATCTTGGGGGTTCGCCCCCATGTCTCATTTCAACTAGCCGTGTGTCTAGTTAACGCACCGCCTCACCCTGGTCGTTATCGGGTCGGTTCTTGCGACCGTTAGATCGTGAGCGTTTCTGAGGATCAGTTCGTATAAGTTCTCCGGTGTGGCGACCGTAAAATCGTCACGTCCCATGCAATAGATGACGTTAAACTCGTTTGCCAGTTACATAAAGGAATGTTGTTACTTTTAAATTGTCTGTTACATTTAACATCTTGCCAGTATGATGCTACTGTACACTACGGGTGTAGGAACCTTGTAGTGTGACGTATCACTCATATGTGGATGGGTGCTCCAGACCTTTATGGAAGCTCTCAGTTAGTAGTGATCCTTGACTTCATTGAGCCCTGGTAACAGTGGAAGTCAAGATGTATATGTTGCTCAACACACTTCGGTGCTACGAAGCTGTTTGTGGAAGTACTGGCGAGGTTCATTCTGAATCATATGTTTGTCACATAGTCAGGGAGTGCCGTCGCTTACGACGGACCCTTTTTCTTTATAATTACAAATCTGTGTCTCAAGTGTTGTTGGCTGGTTTTCTTCTTCTGTTTTCATTGTTCATATATATACGTCAGAGTGAAAGACTCGGTATATACAAAACTGATCCAGA
modifications: Fipivirus E
B8: Crohivirus A (nucleic acid)
DNA: GTTGAAGTCCATTTCTTGCTTGCCCCCGATGAATCCTGTTAAGGCCTCACGGCCCTAAGGGTGAAACTCGGTTATCCCCTCCTGTACTTCGAGAAGATTAGTACAACACTATGAAATCTACATCTTGTGATCCGGGATAACCCCAATCCCAGAAACCTGTGATGGGCGTCACCACCCCTCTTATGGTAACATAAGGGTGTCGCCGCGTTGGCACAGGACCCTTTGGGCTGGATGTTTTTAGTAATGGTGTCGAAGGTCCTATTGAGCTACAGGAGTTTCCTCCGCCCTGGTGAATGCGGCTAATCTTATCCCTGAGCCTAAGGTTGCGATCCAGCAACTTGATGGTCGTAATGCGTAAGTTGGGGGCGGAACCGACTACTTTCCAGAAGGCGTGTTTCTTTGTTTTGTCTGTTACTATGGTGCATGATATAGATATTGAATATTTGATCTTTTTGAGCTGTTTCTTATCTTATTGCTACATCCTTTCAGGTGTTGGATTTACATTTTGGTTAATAAG
modifications: Crohivirus A
B9: Aquamavirus (nucleic acid, listed as Aquamavirus sp.)
DNA: TTCAAAGGTGGCGGGAGAGTTGGCCTCACGCTGTTTAGCGTGAGAGCTGGCTCTCCTGCCCCTTCCCCTGAGCCGGGGATCTTGGCTCATTCCCCTCTTTTCTATCCTCCCTCATTGGACTTTACGGATGACCCGGCATAAACTTGACAACCGATGTTGGATTTCCCTTGTGGCTGTGATGGAGGACATACCCTCGGGTGTAGTTGTGTGCGTGTCGCTCTGCGACTCGAGCTTCAAAGTGGTGCTGAAATATTGCAAGCGTCGTTGCTCGATTAACGGAGTGGTACAATCCTATGAACCCAAGTGCATTCATGCGAAAGCCCCGGAGGGGTGAGTAGCATGGACTCGAATCAGAAGAGCTGGAGCTCGCTTGGTACGGCACGTAGCATTGCTTTGCCTAAAGACCAAGGGGGTATGGCTATAGGTGGGGGCCTATAGCTTGTCCAGTGCTGGTTGACAGACTCGTGCTACGCGTCTGGTTCGAGTATAAGTAGCTGCAACTCACT
B10: Hepatovirus I (nucleic acid)
DNA: GGCTGCCTGTGTCTCAGGGGTAAGTACTGGGGCCGCGTTGACCGTGCGGTACGGTTATGCTTTTAGATTAGGATGTCCGTCTGTCCGGCACTCTCTTTTGCTTAAAATGGCCTTAAATCCATGGGAGGCGTAACCATGGGCCCTTTGTTACCTAGACATGATTGCATTGGGGGCCGTCCTTGGGGCTTAGGCCCCAGCCATTTCTCTTGACTCGTCTAAGAGTTTACTTCATCCTTTTCTTTACTTTATTTTCCAGGCTCTCAGCATGCCGACGGCTCTGACCACTGCGCCCGGTGGGGTTAACTGCATGATTAGCATGCAGCTGTAGGAGTTAAAAGTGCTGACAGGCCAATTCTGACGTAAGTCCACTCTATATTAACTTGATCAAGTAAGGTTGATTGATCTTTGTGAGAGGGTAGGCTACGGGTGAAACCCTCTAGGTTAATACTCATATTGAGAGATACCTCCAGAAGGTGAAGGTTGGCGGATATTGGTGAGTTCTTTTAGGACAAAAACCTTTCAACGCCTGTGGGCCCACCTCACTGGCACAATGCTTTCATCCCCAATTGTGATGGGTAGTTTGGACTGAAATCAGGAGTAACCTGCCCTACGAGTTTAGGGGTAGTTCAGGGGTATTTAGGCTTCCACATTTGATAGAGTTTATGAGAGTGAGCC
modifications: Hepatovirus I

This series has as its system HEK293 cells. The class given is cell-based, human. Particulars: luminescence from secreted Gluc in supernatant 24 hours after transfection of HEK293 cells; circular RNA encoding Gluc with the named IRES (UTR truncated to 675 nt).
The molecule B1 yielded an Expression of 2.69E+05.

B2: the Expression was found to be 1.10E+05. For B3, the Expression amounted to 1.91E+05. Under B4 stands 1.09E+05; under B5, 8.68E+04; under B6, 5.08E+05.

B7 showed an Expression of 1.10E+05.

B8: the Expression was found to be 9.96E+04. Under B9 stands 4.51E+06.

Turning to B10, the Expression amounted to 8.79E+05.
